Assay results from the supplement of paper PMC10567573.

B1: FBF1 (parent)
chain: QLQCSPAELQAELLHSQARLAELE

Variants of: B1
Assay: protein stability index of a GFP-peptide fusion (GPS, HEK-293T) (PSI 1-6); higher = more stable
Conditions: c terminus: a fixed tail appended
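Note: lentivirally expressed fusions sorted by FACS into six bins by GFP to DsRed ratio, PSI derived from sequencing read proportions per bin multiplied by bin number.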

| Variant | protein stability index |
| --- | --- |
| QLQCSPAELQAELLHSQARLAYLE [E22Y] | 2.33 |
| QLQCSPAELQAELLHSQARLANLE [E22N] | 3.21 |
| QLQCSPAELQAELLHSQARLADLE [E22D] | 2.72 |
| QLQCSPAELQAELLHSQARLASLE [E22S] | 2.48 |
| QLQCSPAELQAELLHSQARLAWLE [E22W] | 2.76 |
| QLQCSPAELQAELLHSQARLAFLE [E22F] | 2.25 |
| QLQCSPAELQAELLHSQARLAVLE [E22V] | 2.54 |
| QLQCSPAELQAELLHSQARLALLE [E22L] | 1.98 |
| QLQCSPAELQAELLHSQARLARLE [E22R] | 2.92 |
| QLQCSPAELQAELLHSQARLAGLE [E22G] | 2.91 |
| QLQCSPAELQAELLHSQARLAILE [E22I] | 2.16 |
| QLQCSPAELQAELLHSQARLAKLE [E22K] | 2.99 |
| QLQCSPAELQAELLHSQARLAMLE [E22M] | 3.12 |
| QLQCSPAELQAELLHSQARLAQLE [E22Q] | 2.53 |
| QLQCSPAELQAELLHSQARLATLE [E22T] | 2.34 |
| QLQCSPAELQAELLHSQARLAALE [E22A] | 2.83 |
| QLQCSPAELQAELLHSQARLACLE [E22C] | 2.67 |
| QLQCSPAELQAELLHSQARLAPLE [E22P] | 3.39 |
| QLQCSPAELQAELLHSQARLAHLE [E22H] | 2.39 |
| QLQCSPAELQAELLHSQARLAEEE [L23E] | 4.48 |
| QLQCSPAELQAELLHSQARLAEHE [L23H] | 4 |
| QLQCSPAELQAELLHSQARLAEFE [L23F] | 2.75 |
| QLQCSPAELQAELLHSQARLAENE [L23N] | 4.79 |
| QLQCSPAELQAELLHSQARLAEAE [L23A] | 4.59 |

| Variant | protein stability index |
| --- | --- |
| QLQCSPAELQAELLHSQARLAEGE [L23G] | 4.71 |
| QLQCSPAELQAELLHSQARLAEIE [L23I] | 2.59 |
| QLQCSPAELQAELLHSQARLAEKE [L23K] | 4.65 |
| QLQCSPAELQAELLHSQARLAEME [L23M] | 3.38 |
| QLQCSPAELQAELLHSQARLAECE [L23C] | 3.66 |
| QLQCSPAELQAELLHSQARLAEDE [L23D] | 5.07 |
| QLQCSPAELQAELLHSSARLAELE [Q17S] | 3.98 |
| QLQCSPAELQAELLHSGARLAELE [Q17G] | 3.74 |
| QLQCSPAELQAELLHSLARLAELE [Q17L] | 2.92 |
| QLQCSPAELQAELLHSKARLAELE [Q17K] | 4.11 |
| QLQCSPAELQAELLHSMARLAELE [Q17M] | 3.65 |
| QLQCSPAELQAELLHSEARLAELE [Q17E] | 3.77 |
| QLQCSPAELQAELLHSHARLAELE [Q17H] | 4.31 |
| QLQCSPAELQAELLHSAARLAELE [Q17A] | 3.4 |
| QLQCSPAELQAELLHSRARLAELE [Q17R] | 3.68 |
| QLQCSPAELQAELLHSDARLAELE [Q17D] | 4.55 |
| QLQCSPAELQAELLHSFARLAELE [Q17F] | 3.26 |
| QLQCSPAELQAELLHSWARLAELE [Q17W] | 3.16 |
| QLQCSPAELQAELLHSYARLAELE [Q17Y] | 3.52 |
| QLQCSPAELQAELLHSCARLAELE [Q17C] | 3.62 |
| QLQCSPAELQAELLHSVARLAELE [Q17V] | 3.44 |
| QLQCSPAELQAELLHSIARLAELE [Q17I] | 3.07 |
| QLQCSPAELQAELLHSNARLAELE [Q17N] | 4.25 |
| QLQCSPAELQAELLHSPARLAELE [Q17P] | 4.52 |

| Variant | protein stability index |
| --- | --- |
| QLQCSPAELQAELLHSTARLAELE [Q17T] | 3.97 |
| QLQCSPAELQAELNHSQARLAELE [L14N] | 2.85 |
| QLQCSPAELQAELHHSQARLAELE [L14H] | 3.94 |
| QLQCSPAELQAELKHSQARLAELE [L14K] | 3.72 |
| QLQCSPAELQAELDHSQARLAELE [L14D] | 4.88 |
| QLQCSPAELQAELRHSQARLAELE [L14R] | 3.33 |
| QLQCSPAELQAELVHSQARLAELE [L14V] | 4.08 |
| QLQCSPAELQAELGHSQARLAELE [L14G] | 4.5 |
| QLQCSPAELQAELYHSQARLAELE [L14Y] | 3.21 |
| QLQCSPAELQAELSHSQARLAELE [L14S] | 3.67 |
| QLQCSPAELQAELAHSQARLAELE [L14A] | 2.89 |
| QLQCSPAELQAELCHSQARLAELE [L14C] | 3.3 |
| QLQCSPAELQAELWHSQARLAELE [L14W] | 2.93 |
| QLQCSPAELQAELQHSQARLAELE [L14Q] | 3.59 |
| QLQCSPAELQAELMHSQARLAELE [L14M] | 2.93 |
| QLQCSPAELQAELEHSQARLAELE [L14E] | 4.39 |
| QLQCSPAELQAELPHSQARLAELE [L14P] | 4.8 |
| QLQCSPAELQAELFHSQARLAELE [L14F] | 3.27 |
| QLQCSPAELQAELIHSQARLAELE [L14I] | 3.83 |
| QLQCSPAELQAELTHSQARLAELE [L14T] | 3.61 |
| QLQCSPAELQAELLHSQARLWELE [A21W] | 2.8 |
| QLQCSPAELQAELLHSQARLSELE [A21S] | 3.31 |
| QLQCSPAELQAELLHSQARLLELE [A21L] | 2.63 |
| QLQCSPAELQAELLHSQARLIELE [A21I] | 2.55 |

| Variant | protein stability index |
| --- | --- |
| QLQCSPAELQAELLHSQARLTELE [A21T] | 2.86 |
| QLQCSPAELQAELLHSQARLDELE [A21D] | 2.68 |
| QLQCSPAELQAELLHSQARLHELE [A21H] | 2.98 |
| QLQCSPAELQAELLHSQARLQELE [A21Q] | 2.67 |
| QLQCSPAELQAELLHSQARLKELE [A21K] | 3.29 |
| QLQCSPAELQAELLHSQARLVELE [A21V] | 3.14 |
| QLQCSPAELQAELLHSQARLRELE [A21R] | 3.25 |
| QLQCSPAELQAELLHSQARLPELE [A21P] | 3.75 |
| QLQCSPAELQAELLHSQARLFELE [A21F] | 2.72 |
| QLQCSPAELQAELLHSQARLGELE [A21G] | 3.79 |
| QLQCSPAELQAELLHSQARLNELE [A21N] | 3.41 |
| QLQCSPAELQAELLHSQARLCELE [A21C] | 3.01 |
| QLQCSPAELQAELLHSQARLEELE [A21E] | 2.61 |
| QLQCSPAELQAELLHSQARLMELE [A21M] | 2.31 |
| QLQCSPAELQAELLHSQARLYELE [A21Y] | 2.31 |
| QLQCSPAELQAELLGSQARLAELE [H15G] | 4.04 |
| QLQCSPAELQAELLTSQARLAELE [H15T] | 3.56 |
| QLQCSPAELQAELLVSQARLAELE [H15V] | 2.85 |
| QLQCSPAELQAELLQSQARLAELE [H15Q] | 3.71 |
| QLQCSPAELQAELLLSQARLAELE [H15L] | 2.27 |
| QLQCSPAELQAELLYSQARLAELE [H15Y] | 1.92 |
| QLQCSPAELQAELLPSQARLAELE [H15P] | 4.91 |
